Reference: patent US20260022353

Biological target: piggyBac transposase, 5 hyperactive mutations (Hyper) I30V,G165S,M226F,M282V,N538K (Trichoplusia ni?) (UniProt Q27026)
Test: cell_activity
Conditions: ~50% enhanced integration in K562 (p260); ~50% enhanced excision in 293T (p263)

Chain of UniProt Q27026 (Q27026 entry or part of it I30V G165S M226F M282V N538K): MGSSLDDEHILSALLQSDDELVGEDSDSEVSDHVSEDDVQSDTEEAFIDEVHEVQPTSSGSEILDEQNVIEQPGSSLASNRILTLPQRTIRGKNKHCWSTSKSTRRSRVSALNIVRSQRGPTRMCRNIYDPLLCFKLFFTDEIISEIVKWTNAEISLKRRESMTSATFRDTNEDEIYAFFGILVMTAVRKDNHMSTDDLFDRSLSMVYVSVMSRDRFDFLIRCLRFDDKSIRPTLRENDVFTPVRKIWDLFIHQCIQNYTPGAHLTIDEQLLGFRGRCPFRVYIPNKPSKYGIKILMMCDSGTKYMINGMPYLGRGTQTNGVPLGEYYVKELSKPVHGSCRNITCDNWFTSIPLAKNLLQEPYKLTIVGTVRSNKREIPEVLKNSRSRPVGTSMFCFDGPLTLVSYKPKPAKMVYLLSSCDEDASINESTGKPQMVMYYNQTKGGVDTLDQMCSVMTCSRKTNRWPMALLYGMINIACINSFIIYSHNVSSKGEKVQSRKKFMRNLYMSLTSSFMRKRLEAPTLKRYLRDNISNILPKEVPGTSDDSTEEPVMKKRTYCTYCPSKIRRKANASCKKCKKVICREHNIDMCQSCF

“piggyBac transposon with wild type LE and RE ITRs (dual reporter)” showed an activity (fold vs 4-mutation SPB) of 1.5.
